Experiments:
[1] = target: T1, FcγRIIIA (soluble receptor used as analyte in the BIAcore runs) (human, UniProt P08637 17-208); experiment: BIAcore run 2, IgG immobilized, soluble FcγRIIIA, Scatchard plot
[2] = target: T1, FcγRIIIA (soluble receptor used as …); experiment: BIAcore run 1, ratio of isotherm KD values against wild type Vitaxin®
[3] = target: T1, FcγRIIIA (soluble receptor used as …); experiment: BIAcore run 1, IgG immobilized, soluble FcγRIIIA, Scatchard plot
[4] = target: T1, FcγRIIIA (soluble receptor used as …); experiment: BIAcore run 2, ratio of isotherm KD values against wild type Vitaxin®
[5] = target: T1, FcγRIIIA (soluble receptor used as …); experiment: BIAcore run 2, IgG immobilized, soluble FcγRIIIA, steady-state isotherm
[6] = target: T1, FcγRIIIA (soluble receptor used as …); experiment: BIAcore run 1, IgG immobilized, soluble FcγRIIIA, steady-state isotherm

T1 sequence (P08637 17-208): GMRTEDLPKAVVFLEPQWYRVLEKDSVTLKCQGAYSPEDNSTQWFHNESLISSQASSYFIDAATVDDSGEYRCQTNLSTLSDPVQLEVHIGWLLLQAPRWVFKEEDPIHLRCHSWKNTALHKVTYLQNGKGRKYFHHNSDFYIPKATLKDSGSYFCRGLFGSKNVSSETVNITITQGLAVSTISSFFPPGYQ

| Binder | Kd [1] [nM] | Fold increase over WT [2] [fold] | Kd [3] [nM] | Fold increase over WT [4] [fold] | Kd [5] [nM] | Kd [6] [nM] |
| --- | --- | --- | --- | --- | --- | --- |
| Vitaxin®-1M (Vitaxin® Fc variant I332E, IgG1) (antibody, Full length IgG1 with I332E in the Fc; expressed in 293H/HEK293 cells; also called I332E Fc variant; Vitaxin® Fc (I332E) variant) heavy: not shown VL: EIVLTQSPATLSLSPGERATLSCQASQSISNFLHWYQQRPGQAPRLLIRYRSQSISGIPARFSGSGSGTDFTLTISSLEPEDFAVYYCQQSGSWPLTFGGGTKVEIK | 1220 | 6.5 | 458 | 7 | 1280 | 458 |
| Vitaxin®-3M (Vitaxin® Fc variant S239D/A330L/I332E, IgG1) (antibody, I332E is used here; also called Vitaxin S239D/A330L/I332E) heavy: QVQLVESGGGVVQPGRSLRLSCAASGFTFSSYDMSWVRQAPGKGLEWVAKVSSGGGSTYYLDTVQGRFTISRDNSKNTLYLQMNSLRAEDTAVYYCARHLHGSFASWGQGTTVTVSSASTKGPSVFPLAPSSKSTSGGTAALGCLVKDYFPEPVTVSWNSGALTSGVHTFPAVLQSSGLYSLSSVVTVPSSSLGTQTYICNVNHKPSNTKVDKKVEPKSCDKTHTCPPCPAPELLGGPDVFLFPPKPKDTLMISRTPEVTCVVVDVSHEDPEVKFNWYVDGVEVHNAKTKPREEQYNSTYRVVSVLTVLHQDWLNGKEYKCKVSNKALPLPEEKTISKAKGQPREPQVYTLPPSRDELTKNQVSLTCLVKGFYPSDIAVEWESNGQPENNYKTTPPVLDSDGSFFLYSKLTVDKSRWQQGNVFSCSVMHEALHNHYTQKSLSLSPGK VL: EIVLTQSPATLSLSPGERATLSCQASQSISNFLHWYQQRPGQAPRLLIRYRSQSISGIPARFSGSGSGTDFTLTISSLEPEDFAVYYCQQSGSWPLTFGGGTKVEIK | – | – | – | – | 114 | – |

Reference: US20060039904A1 (AstraZeneca / MedImmune, published 2006)
